No end group written: not given here.

Results on six molecules are retold here after patent US20220236279A1 (LUXEMBOURG INSTITUTE OF HEALTH LIH, published 2022).

B1: Cy-5-labelled LIH383 (peptide)
peptide: FGGFMRRK
modifications: also: Cy5 label, site not given here
notes: also called LIH383-Cy5; fluorescently labelled LIH383
B2: delta-type opioid receptor (DOR) (receptor, UniProt P41143 1-372, looked up)
chain: MEPAPSAGAELQPPLFANASDAYPSACPSAGANASGPPGARSASSLALAIAITALYSAVCAVGLLGNVLVMFGIVRYTKMKTATNIYIFNLALADALATSTLPFQSAKYLMETWPFGELLCKAVLSIDYYNMFTSIFTLTMMSVDRYIAVCHPVKALDFRTPAKAKLINICIWVLASGVGVPIMVMAVTRPRDGAVVCMLQFPSPSWYWDTVTKICVFLFAFVVPILIITVCYGLMLLRLRSVRLLSGSKEKDRSLRRITRMVLVVVGAFVVCWAPIHIFVIVWTLVDIDRRDPLVVAALHLCIALGYANSSLNPVLYAFLDENFKRCFRQLCRKPCGRPDPSSFSRAREATARERVTACTPSDGPGGGAAA
notes: whole, on cells; C-terminally SmBiT-tagged in the NanoBiT assays; also called OPRD; DOP

In assay [1] the target is T1, human atypical chemokine receptor 3 (ACKR3) (human, UniProt P25106 1-362).
T1 construct: whole, on cells; also called CXCR7
Nature of the assay: flow cytometry competition with 5 nM CXCL12-AF647 on U87-ACKR3 cells. From the text: Dead cells were excluded using Zombie Green viability dye (BioLegend). […] Ligand binding was quantified by mean fluorescence intensity on a BD FACS Fortessa cytometer (BD Biosciences).
In general terms: Flow cytometry measures light scatter and fluorescence of single cells or particles in a stream.

Assay [2] addresses T2, C-X-C motif chemokine receptor 4 (CXCR4) (UniProt P61073 1-352).
T2 construct: whole, on cells; Stably expressed in U87 cells (U87-CXCR4); C-terminally SmBiT-tagged in the NanoBiT assays
Briefly: flow cytometry, labelled peptide on U87-CXCR4 cells.

Assay [3] deals with T1, human atypical chemokine receptor 3 …. Nature of the assay: cell-based or functional assay.
Assay [4] has as its target T3, human β-arrestin-1 N-terminally fused to LgBiT (human, UniProt P49407 1-418).
T3 construct: Co-expressed in U87 cells with SmBiT-tagged receptors; also called LgBiT-beta-arrestin-1; not shown: LgBiT (NanoBiT, Promega)
Briefly: NanoBiT complementation in U87 cells (receptor-SmBiT, LgBiT-β-arrestin-1), induced by adrenorphin. As to the method:
48 hours post-transfection cells were harvested, incubated 25 minutes at 37° C. with Nano-Glo Live Cell substrate diluted 200-fold and distributed into white 96-well plates (5×10⁴ cells per well). Ligand-induced, β-arrestin and mG recruitment to GPCRs was evaluated with a Mithras LB940 luminometer (Berthold Technologies) for 20 minutes. For concentration-response curves, the signal recorded with a saturating concentration of full agonist for each receptor was set as 100%.

Assay [5] concerns the target mu-type opioid receptor (MOR) (UniProt P35372 1-400). Nature of the assay: cell-based or functional assay.
Assay [6] deals with B2. Briefly: cell-based or functional assay.
The target of assay [7] is kappa-type opioid receptor (KOR) (UniProt P41145 1-380). Nature of the assay: cell-based or functional assay.
Sequence of kappa-type opioid receptor (KOR) (P41145 whole entry): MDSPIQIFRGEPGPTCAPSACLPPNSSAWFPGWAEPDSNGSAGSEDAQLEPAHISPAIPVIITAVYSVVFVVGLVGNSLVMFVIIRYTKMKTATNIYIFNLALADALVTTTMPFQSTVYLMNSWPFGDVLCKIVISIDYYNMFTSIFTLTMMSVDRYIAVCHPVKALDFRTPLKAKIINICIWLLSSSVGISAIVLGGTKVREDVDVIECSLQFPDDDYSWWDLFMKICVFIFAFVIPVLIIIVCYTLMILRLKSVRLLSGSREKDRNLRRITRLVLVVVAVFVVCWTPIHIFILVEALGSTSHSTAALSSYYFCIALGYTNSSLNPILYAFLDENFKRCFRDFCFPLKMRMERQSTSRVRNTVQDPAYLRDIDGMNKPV

T1 sequence (P25106 whole entry): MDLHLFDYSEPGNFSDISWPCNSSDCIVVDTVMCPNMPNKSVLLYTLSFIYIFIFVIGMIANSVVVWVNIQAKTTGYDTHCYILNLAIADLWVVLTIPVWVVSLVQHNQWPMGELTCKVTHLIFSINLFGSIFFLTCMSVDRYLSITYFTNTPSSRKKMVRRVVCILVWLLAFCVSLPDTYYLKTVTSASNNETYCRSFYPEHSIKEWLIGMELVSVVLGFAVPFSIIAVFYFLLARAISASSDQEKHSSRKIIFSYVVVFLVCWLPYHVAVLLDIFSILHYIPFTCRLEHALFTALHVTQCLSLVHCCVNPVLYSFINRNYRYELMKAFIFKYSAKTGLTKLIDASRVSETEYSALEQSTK
Sequence of mu-type opioid receptor (MOR) (P35372 whole entry): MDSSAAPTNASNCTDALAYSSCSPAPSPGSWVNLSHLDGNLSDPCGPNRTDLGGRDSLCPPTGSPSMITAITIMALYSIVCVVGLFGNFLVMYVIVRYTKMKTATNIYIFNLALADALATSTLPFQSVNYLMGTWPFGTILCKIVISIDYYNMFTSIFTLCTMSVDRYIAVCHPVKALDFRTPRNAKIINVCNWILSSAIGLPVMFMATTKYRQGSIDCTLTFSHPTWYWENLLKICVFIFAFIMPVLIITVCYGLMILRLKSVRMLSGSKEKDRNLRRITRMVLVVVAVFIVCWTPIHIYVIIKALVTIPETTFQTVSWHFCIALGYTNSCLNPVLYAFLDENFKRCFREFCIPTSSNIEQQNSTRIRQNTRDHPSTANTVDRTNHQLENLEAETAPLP
T3 sequence (P49407 whole entry, the tested form may be a part): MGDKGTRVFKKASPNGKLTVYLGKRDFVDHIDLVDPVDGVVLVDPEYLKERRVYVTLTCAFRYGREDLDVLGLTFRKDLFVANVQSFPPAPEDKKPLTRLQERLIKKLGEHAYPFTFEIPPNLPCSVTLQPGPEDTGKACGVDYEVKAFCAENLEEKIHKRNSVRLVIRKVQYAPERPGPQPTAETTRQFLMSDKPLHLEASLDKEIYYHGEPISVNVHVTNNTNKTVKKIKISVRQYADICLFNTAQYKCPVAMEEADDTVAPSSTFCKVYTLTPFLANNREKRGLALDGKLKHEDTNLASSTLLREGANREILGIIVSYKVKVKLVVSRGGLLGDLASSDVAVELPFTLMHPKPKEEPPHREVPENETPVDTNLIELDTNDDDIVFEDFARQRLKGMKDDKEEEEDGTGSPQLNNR
T2 sequence (P61073 whole entry): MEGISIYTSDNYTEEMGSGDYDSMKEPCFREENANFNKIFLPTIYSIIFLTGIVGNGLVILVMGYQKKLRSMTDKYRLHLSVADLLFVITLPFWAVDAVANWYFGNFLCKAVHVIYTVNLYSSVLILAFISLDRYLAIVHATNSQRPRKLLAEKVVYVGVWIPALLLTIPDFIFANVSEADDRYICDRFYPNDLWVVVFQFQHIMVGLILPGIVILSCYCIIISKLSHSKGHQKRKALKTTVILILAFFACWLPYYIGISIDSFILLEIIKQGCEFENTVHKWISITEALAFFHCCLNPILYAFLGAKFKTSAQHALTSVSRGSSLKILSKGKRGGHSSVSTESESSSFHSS

For the molecule GGFLRRIRPKLKWDNQ [dynorphin 2-17 (SEQ ID NO: 19)], the binding result in assay [1] was “binds”.
Still for that read-out and setting: as for GGFLRRIRPKLK-NH2 [dynorphin 2-13 (SEQ ID NO: 20; NH2-substituted at C-terminus)], the entry is “binds”.
Consider B1, for which, in assay [2], the binding result is “no binding”.
On to H-FGGFMRRK-NH2 [LIH383, octapeptide FGGFMRRK (SEQ ID NO: 3; NH2-substituted at C-terminus)], for which the “EC50, β-arrestin recruitment (NanoBiT)” value in assay [3] amounted to 0.61 nM.
As for B2, in assay [4], the binding result is listed as “binds”.
Turning to FGGFMRRV-NH2 [adrenorphin Y1F variant (SEQ ID NO: 35; NH2-substituted at C-terminus)], the “fold reduction of potency against WT adrenorphin, β-arrestin-1 recruitment” value in assay [5], in assay [6] and in assay [7] was > 100 fold in each case. Moreover, the “fold change of potency against WT adrenorphin, β-arrestin-1 recruitment” value in assay [3] amounted to 10 fold.
